Assay [1] has as its target T1, bovine serum albumin (BSA) (bovine, UniProt P02769 25-607).
T1 construct: Unconjugated carrier protein used as a screening control; also called carrier protein
Description: indirect EIA, compounds coated on microtiter plates, clonal supernatant, goat anti-mouse IgG HRP detection. How it is done: (§1) An assay was developed to screen the Mabs for reactivity to the FTC conjugates. Microtiter plates were coated with the following reagents: FTC-peptide-dextran, FTC-peptide, FTC-peptide-LPH, FTC-peptide-BSA, FTC heptanoic acid, peptide only, peptide-LPH, peptide-BSA, BSA, LPH, and normal mouse serum (NMS). All compounds were diluted into sodium bicarbonate buffer, pH 9.6, to a concentration of 5 ug/ml; NMS was diluted 1:15. One hundred microliters of each solution was added to a column of the microtiter plate such that each row of the plate allowed the testing of a single clonal supernatant against all of the compounds in a single run. Plates were incubated at 4° C. overnight and then washed 3× with phosphate-buffered saline (PBS) containing 0.05% Tween 20 (PBS-T). Plates were blocked with PBS containing 0.5% nonfat dry milk for 1 hour at 37° C., washed 3×, and dried at 37° C. for 30 minutes. Prepared plates were covered with an adhesive seal, placed into a moisture resistant bag, and stored in a dessicant chamber at 20-24° C. until use.

Assay [2] concerns the target T2, limulus polyphemus hemocyanin II (LPH) (Limulus polyphemus, UniProt P04253 1-628, limits assumed).
T2 construct: Unconjugated carrier protein used as a screening control; also called carrier protein
T2 sequence (looked up): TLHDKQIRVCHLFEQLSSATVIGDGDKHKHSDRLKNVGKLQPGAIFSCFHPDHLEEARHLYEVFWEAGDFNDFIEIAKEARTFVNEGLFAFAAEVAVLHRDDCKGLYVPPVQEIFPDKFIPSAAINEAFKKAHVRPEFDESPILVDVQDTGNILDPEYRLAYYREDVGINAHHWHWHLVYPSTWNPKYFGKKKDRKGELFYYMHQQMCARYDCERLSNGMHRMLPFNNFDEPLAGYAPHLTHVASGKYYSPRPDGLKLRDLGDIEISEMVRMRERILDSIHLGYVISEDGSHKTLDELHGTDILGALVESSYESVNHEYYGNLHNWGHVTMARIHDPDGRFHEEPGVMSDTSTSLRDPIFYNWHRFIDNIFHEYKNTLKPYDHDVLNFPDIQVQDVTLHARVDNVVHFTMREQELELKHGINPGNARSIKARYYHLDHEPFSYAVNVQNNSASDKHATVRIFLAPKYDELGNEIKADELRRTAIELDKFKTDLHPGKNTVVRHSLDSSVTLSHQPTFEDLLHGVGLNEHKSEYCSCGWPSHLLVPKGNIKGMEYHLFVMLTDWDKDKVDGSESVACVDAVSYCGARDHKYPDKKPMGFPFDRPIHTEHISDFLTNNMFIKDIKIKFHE
The description is as above. How it is done:
as §1

T1 sequence (P02769 25-607 limits assumed): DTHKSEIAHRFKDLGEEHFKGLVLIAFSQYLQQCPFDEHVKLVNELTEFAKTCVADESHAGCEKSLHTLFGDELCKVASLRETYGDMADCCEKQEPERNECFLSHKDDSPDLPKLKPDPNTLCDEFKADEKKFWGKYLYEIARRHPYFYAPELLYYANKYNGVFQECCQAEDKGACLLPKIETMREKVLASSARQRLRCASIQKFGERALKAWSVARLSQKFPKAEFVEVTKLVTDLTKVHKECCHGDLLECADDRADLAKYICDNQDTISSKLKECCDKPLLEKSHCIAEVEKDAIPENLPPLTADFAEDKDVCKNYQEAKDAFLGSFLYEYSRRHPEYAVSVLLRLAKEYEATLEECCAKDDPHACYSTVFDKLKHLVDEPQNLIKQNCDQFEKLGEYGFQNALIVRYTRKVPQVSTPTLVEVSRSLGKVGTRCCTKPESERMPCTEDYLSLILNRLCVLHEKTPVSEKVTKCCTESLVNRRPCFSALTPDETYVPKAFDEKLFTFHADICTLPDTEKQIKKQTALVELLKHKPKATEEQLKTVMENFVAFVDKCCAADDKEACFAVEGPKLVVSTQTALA

B1: 5D2 monoclonal antibody (antibody, mouse IgG2b, kappa, V domains shown)
VH: QVQLQQPGAELVKPGASVKVSCKASGYTFTSYWMHWVKQRPGQGLEWIGRIHLSDSDTNYNQNFKDKATLTVDKSSRTAHMHLSSLTSADSAVYYCAMGGTFQSNYDTYWGQGTLVTVSA
VL: DIQMTQSPASLSASVGETVTITCRASGNIHNYLAWYQQKQGKSPQLLVYNAKTLTDGVPSRFSGSGSGTQYSLKINSLQPEDFGNYYCQHFLYTPYTFGGGTKLEMRR
notes: Mouse IgG2b, kappa, raised against the small molecule emtricitabine (FTC); In the lateral flow assay the antibody was conjugated to gold; also called Mab 5D2; FTC (5D2) monoclonal antibody
As to B1, the binding result in assay [1] and in assay [2] was “no binding (tested: 5 ug/ml (coating concentration))” throughout.

These data come from patent US20210253738A1 (UNITED STATES OF AMERICA AS REPRESENTED BY THE SECRETARY …, published 2021).
